Source: patent publication US7271245B2, “Methods and compositions for inhibition of metastasis” (The Scripps Research Institute, priority 2004, dated 2007)

Target: T1, activated integrin αvβ3 (Homo sapiens, UniProt P05106+P06756)
T1 construct: endogenous in cells; host or cells: MDA-MB 435 variants (Parent Combo, Bone, Lung) and patient blood-derived BMS cells; also β3-negative cells re-transfected with β3WT or β3D723R cDNA
Experiment: Flow cytometry, scFv binding to MDA-MB 435 variants and patient metastatic breast cancer cells
Method: FIGS. 1A, 1B, 1C. Patient derived scFvs Bc-12 and Bc-15 recognize tumor cell integrin αvβ3 in a cation and activation dependent manner. Flow cytometric analyses in TBS with or without 1 mM Ca^2+, 1 mM Mg^2+, or 0.2 mM Mn^2+ as indicated. Binding of soluble scFv detected after incubation with anti-Flag M2 murine mAb followed by FITC-anti mouse F(ab′)2. (A) scFv binding to human melanoma cells (M21: αvβ3 plus other αv integrins) (M21-LIIb: αIIbβ3, no αv integrins) or lung adenocarcinoma cells (UCLA-P3: αv integrins, no β3 integrin). (B) scFv binding to M21 melanoma cells. (C) scFv binding to variants of MDA-MB 435 human breast cancer cells that lack (β^3−) or express αvβ3 either in a non-activated (β3WT, ParentCo) or activated form (β3D723R, Bone, Lung, and BMS metastatic cancer cells isolated from breast cancer patient blood).
FIGS. 2A, 2B, 2C, 2D. Translation of scFv DNA sequence analyses. (A) Consensus amino acid sequence (SEQ ID NO: 9) of Bc-12 (SEQ ID NO: 7) and Bc-15 (SEQ ID NO: 8) (specific for activated αvβ3) compared to Bc-20 (specific for αv) (SEQ ID NO: 10). (B) scFv binding to BMS human breast cancer cells by flow cytometry, indicating loss of Bc-12 and Bc-15 binding when CDR-H3 RGD is mutated to RGE (Mut-12 and Mut-15). […] (C) cDNA sequences for scFv Bc-12 (SEQ ID NO: 1) and scFv Bc-15 (SEQ ID NO: 3). The cDNA encoding scFv Bc-12 has an ATCC accession number PTA-6303, date of deposit: Nov. 12, 2004. The cDNA encoding scFv Bc-15 has an ATCC accession number PTA-6304, date of deposit: Nov. 12, 2004. (D) cDNA sequences for scFv Mut-12 (SEQ ID NO: 5) and scFv Mut-15 (SEQ ID NO: 6). scFv Mut-12 is the RGE containing mutant version of scFv Bc-12. scFv Mut-15 is the RGE containing mutant version of scFv Bc-15.
Flow cytometry. scFv binding to human tumor cells was analyzed by flow cytometry, initially with cloned scFv phage and then with purified scFv protein. Per sample, 2×10^5 tumor cells were blocked with goat serum and incubated either with scFv phage (2-5×10^10) (1 h at RT) followed by mouse anti-M13 mAb (Serotec) (30 min on ice) and goat FITC-anti mouse (Pierce) (30 min on ice), or with purified scFv (1.25 to 40 μg/ml, routinely 10 to 15 μg/ml) (45 min on ice), followed by mouse anti-FLAG mAb M2 (Sigma) (30 min on ice) and goat FITC-anti mouse. Binding/washing buffer was TBS with or without divalent cations (1 mM Ca^2+, 1 mM Mg^2+, 0.2 mM Mn^2+). Alternatively, tumor cells were washed in 10 ml of plasma (prepared freshly from human blood anticoagulated with 50 nM D-Phe-D-Pro-D-arginyl chloromethyl ketone, PPACK, Felding-Habermann et al., J. Biol. Chem. 271: 5892-5900, 1996), resuspended in plasma and then incubated sequentially, without washing, with purified scFv (45 min on ice), followed by anti-FLAG M2 (30 min on ice) and FITC-anti mouse (30 min on ice). All samples were counter stained with propidium iodide (PI) and analyzed on a Becton-Dickinson FACScan, with live gate set to exclude PI positive cells.
To test this further, the effects of cation combinations on Bc-12 and Bc-15 binding were examined. […] Smith, Methods Cell Biol. 69: 247-259, 2002; Hughes et al., J. Biol. Chem. 271: 6571-6574, 1996. To confirm that scFv Bc-12 and Bc-15 selectively recognize αvβ3 in its activated form, binding of these antibodies to in vitro generated and in vivo selected variants of the MDA-MB 435 breast cancer cell model was tested. […] In contrast, Bc-12 and Bc-15 were able to bind an MDA-MB 435 variant expressing constitutively activated mutant αvβ3D723R, without exogenous stimulation with Mn^2+. […] Importantly, scFvs Bc-12 and Bc-15 recognized in vivo selected MDA-MB 435 variants from bone and lung metastases, as well as metastatic cells isolated from breast cancer patient blood samples (FIG. 1C). These cells express αvβ3 in a constitutively activated form. Felding-Habermann et al., Proc. Natl. Acad. Sci. U.S.A 98: 1853-1858, 2001; Rolli et al., Proc. Natl. Acad. Sci. U.S.A 100: 9482-9487, 2003.

T1 sequence (P06756 31-889 limits assumed): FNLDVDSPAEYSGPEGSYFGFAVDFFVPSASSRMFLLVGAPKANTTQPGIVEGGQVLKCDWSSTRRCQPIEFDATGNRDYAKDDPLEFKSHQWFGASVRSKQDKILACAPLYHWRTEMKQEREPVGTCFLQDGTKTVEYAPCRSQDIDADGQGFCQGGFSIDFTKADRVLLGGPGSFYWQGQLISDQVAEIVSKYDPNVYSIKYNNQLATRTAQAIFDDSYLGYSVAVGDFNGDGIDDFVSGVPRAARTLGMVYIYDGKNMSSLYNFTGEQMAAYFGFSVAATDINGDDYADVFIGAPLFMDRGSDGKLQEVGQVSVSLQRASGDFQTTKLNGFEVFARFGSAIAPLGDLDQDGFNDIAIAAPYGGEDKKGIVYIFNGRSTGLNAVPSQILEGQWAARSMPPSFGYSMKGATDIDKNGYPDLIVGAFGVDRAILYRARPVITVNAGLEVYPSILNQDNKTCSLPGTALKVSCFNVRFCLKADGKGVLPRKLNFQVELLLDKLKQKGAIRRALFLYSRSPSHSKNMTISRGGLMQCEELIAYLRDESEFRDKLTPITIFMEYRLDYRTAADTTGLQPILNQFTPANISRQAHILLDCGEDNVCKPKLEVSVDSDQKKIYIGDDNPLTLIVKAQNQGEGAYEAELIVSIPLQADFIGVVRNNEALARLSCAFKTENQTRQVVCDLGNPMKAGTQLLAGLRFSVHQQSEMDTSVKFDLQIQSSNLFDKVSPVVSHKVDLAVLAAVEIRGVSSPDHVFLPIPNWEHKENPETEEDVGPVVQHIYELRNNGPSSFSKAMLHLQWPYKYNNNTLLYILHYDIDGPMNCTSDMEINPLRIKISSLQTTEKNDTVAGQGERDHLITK
T1 sequence (P06756 891-1048 limits assumed): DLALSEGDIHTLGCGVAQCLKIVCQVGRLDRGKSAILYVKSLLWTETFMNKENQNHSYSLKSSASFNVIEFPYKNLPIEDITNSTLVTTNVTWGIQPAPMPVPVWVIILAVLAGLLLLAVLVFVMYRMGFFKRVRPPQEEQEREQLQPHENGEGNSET
T1 sequence (P05106 27-788): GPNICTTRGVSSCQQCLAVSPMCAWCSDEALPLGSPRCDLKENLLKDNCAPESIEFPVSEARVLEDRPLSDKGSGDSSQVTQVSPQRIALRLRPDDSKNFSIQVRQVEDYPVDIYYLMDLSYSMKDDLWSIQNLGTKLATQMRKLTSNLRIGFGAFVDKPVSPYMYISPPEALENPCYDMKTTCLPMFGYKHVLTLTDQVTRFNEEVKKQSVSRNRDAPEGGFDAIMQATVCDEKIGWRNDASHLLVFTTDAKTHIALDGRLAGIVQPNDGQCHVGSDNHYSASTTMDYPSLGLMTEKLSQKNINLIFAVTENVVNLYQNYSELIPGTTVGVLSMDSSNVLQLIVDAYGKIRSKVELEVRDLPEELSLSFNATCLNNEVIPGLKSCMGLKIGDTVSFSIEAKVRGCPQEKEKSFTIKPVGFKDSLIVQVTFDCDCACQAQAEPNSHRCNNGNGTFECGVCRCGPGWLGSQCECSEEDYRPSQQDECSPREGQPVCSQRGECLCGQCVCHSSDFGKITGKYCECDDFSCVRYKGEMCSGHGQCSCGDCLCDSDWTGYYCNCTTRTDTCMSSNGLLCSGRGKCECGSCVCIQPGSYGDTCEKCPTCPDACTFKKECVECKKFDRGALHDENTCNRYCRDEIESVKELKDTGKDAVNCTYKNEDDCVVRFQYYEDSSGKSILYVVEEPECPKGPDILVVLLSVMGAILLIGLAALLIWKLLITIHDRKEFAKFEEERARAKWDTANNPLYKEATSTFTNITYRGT

B1: Bc-12: patient derived human scFv antibody against activated αvβ3 with RGD motif in CDR-H3; cDNA ATCC PTA-6303 (protein)
scFv: MAQVQLVQSGAEVKKPGASVKVSCKASGYTFSNYGITWVRQAPGQGLEWMGWINNGNTHYAQKFQGRVTMTTDTSTSTAYMELRSLRSDDTAVYYCARDPRGDDEPYWGQGTLVTVSSGGGGSGGGGSGGGGSEIVLTQSPLSLPVTLGQPASISCRSSQNLVYSDGNTYLSWFQQRPGQSPRRLIYKVSNRDSGVPDRFSGSGSGTDFTLKISRVEAEDIGVYYCMQGTHWPPRTFGQGTKVEIKRGLGGLVDYKDDDDK
recognition of in vivo selected MDA-MB 435 variants from bone and lung metastases (constitutively activated αvβ3): recognized
recognition of metastatic cells isolated from breast cancer patient blood samples (constitutively activated αvβ3): recognized
binding to MDA-MB 435 Parent Combo cells (non-activated αvβ3): same Mn^2+ dependence
binding to β3 wild type expressing MDA-MB 435 cells (β3WT, non-activated αvβ3, without Mn^2+): failed to bind
binding to β3 wild type expressing MDA-MB 435 cells with Mn2+ (β3WT, with Mn^2+): recognized when activated with Mn^2+

B2: Mut-12: RGE containing mutant version of scFv Bc-12 (protein)
chain: MAQVQLVQSGAEVKKPGASVKVSCKASGYTFSNYGITWVRQAPGQGLEWMGWINNGNTHYAQKFQGRVTMTTDTSTSTAYMELRSLRSDDTAVYYCARDPRGEDEPYWGQGTLVTVSSGGGGSGGGGSGGGGSEIVLTQSPLSLPVTLGQPASISCRSSQNLVYSDGNTYLSWFQQRPGQSPRRLIYKVSNRDSGVPDRFSGSGSGTDFTLKISRVEAEDIGVYYCMQGTHWPPRTFGQGTKVEIKRGLGGLVDYKDDDDK
binding of RGE mutated scFv to human breast cancer cells (BMS cells, compared with parent RGD scFv): strongly reduced
